Measurements as given in CN116496388A (BRAVOVAX CO LTD; SHANGHAI BOWO BIOTECHNOLOGY CO LTD, dated 2023).

B1: AdC68-Hexon单克隆抗体 (hybridoma-derived, purified from mouse ascites) (antibody, V domains shown)
VH: EVQLVETGGGLVQPKGSLKLSCAVSGLPFNTKAMDWVRQAPGEGLEWVARIRTKSNNYATYYADSVKDRFTISRDDAQSMLYLQMTNLKTEDTAMYYCVRDEASWGHGTLVTVSA
VL: DIVMTQIPLSLPVSLGDQASISCRSSQSLVHSDGNTYLHWYLQKPGQSPKLLIYKVSNRFSGVPDRFSGSGSGTDFTLKISRVEAEDLGVYFCSQSTHFPWTFGGGTKLEIK
notes: Mouse IgG1 (all positive hybridomas were IgG1); also called 抗AdC68-Hexon单克隆抗体; 亲本鼠源抗体
B2: 重组抗AdC68-Hexon小鼠单克隆抗体 (antibody, V domains shown)
VH: B1 VH
VL: DIVMTQIPLSLPVSLGDQASISCRSSQSLVHSDGNTYLHWYLQKPGQSPKLLIYKVSNRFSGVPDRFSGSGSGTDFTLKISRVEAEDLGVYFCSQSTHFPWTFGGGTKLEIKR
notes: domain: 小鼠IgGκ轻链恒定区; Expressed in HEK293, assembled as IgG1k, Protein A purified; also called 重组单克隆抗体; 重组抗AdC68-Hexon鼠单克隆抗体; not shown: mouse IgG1 heavy chain constant region (IgG1CH, GenBank No. NC_000078.7, a genomic entry)

Experiments:
野生型人5型腺病毒的Hexon蛋白 [1] = target: T1, 野生型人5型腺病毒的Hexon蛋白 (人5型腺病毒 (human adenovirus type 5), UniProt P04133 2-952); assay: Western blot, reduced virus lysate
T1 construct: also called 野生型人腺病毒5型

野生型人5型腺病毒的Hexon蛋白 [2] = target: T1, 野生型人5型腺病毒的Hexon蛋白; assay: cell immunostaining of virus-infected 293A cells

T1 sequence (P04133 2-952): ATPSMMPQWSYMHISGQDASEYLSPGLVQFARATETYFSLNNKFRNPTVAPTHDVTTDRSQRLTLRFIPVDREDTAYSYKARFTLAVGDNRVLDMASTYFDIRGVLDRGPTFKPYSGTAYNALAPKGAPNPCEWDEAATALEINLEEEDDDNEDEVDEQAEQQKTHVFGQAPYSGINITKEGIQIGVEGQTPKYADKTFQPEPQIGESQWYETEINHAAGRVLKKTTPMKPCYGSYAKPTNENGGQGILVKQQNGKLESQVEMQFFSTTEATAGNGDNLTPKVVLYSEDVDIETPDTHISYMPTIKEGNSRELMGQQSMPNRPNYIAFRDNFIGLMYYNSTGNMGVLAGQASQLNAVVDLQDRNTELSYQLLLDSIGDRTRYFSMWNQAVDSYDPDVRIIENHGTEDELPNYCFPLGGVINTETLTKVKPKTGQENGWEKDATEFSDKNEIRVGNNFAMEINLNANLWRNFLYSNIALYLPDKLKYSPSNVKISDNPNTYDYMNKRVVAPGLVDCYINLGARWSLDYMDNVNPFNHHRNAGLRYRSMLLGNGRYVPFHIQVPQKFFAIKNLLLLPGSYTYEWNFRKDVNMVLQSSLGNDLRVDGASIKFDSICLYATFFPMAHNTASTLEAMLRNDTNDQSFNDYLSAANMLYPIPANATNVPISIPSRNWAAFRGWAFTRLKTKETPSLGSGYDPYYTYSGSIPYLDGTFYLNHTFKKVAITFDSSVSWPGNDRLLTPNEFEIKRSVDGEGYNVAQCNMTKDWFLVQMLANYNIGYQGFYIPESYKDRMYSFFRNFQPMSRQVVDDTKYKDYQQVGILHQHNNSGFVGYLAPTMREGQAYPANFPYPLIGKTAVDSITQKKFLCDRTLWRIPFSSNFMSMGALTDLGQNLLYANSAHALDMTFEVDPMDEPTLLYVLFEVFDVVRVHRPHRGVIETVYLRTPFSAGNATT

| Binder | binding result (野生型人5型腺病毒的Hexon蛋白 [1]) | binding result (野生型人5型腺病毒的Hexon蛋白 [2]) |
| --- | --- | --- |
| B1 | no binding (tested: antibody diluted 1:10000) | – |
| B2 | – | no binding |
